# Test results: patent US20100069304A1, “PROTECTIVE EFFECTS OF INHIBITING THE INTERACTION OF CALMODULIN AND MUTANT HUNTINGTIN PROTEIN” (priority 2008, published 2010)
# Biological target: htt-N63-148Q (63 amino acid N-terminal huntingtin fragment containing 148 polyglutamine repeats) (UniProt P42858)
# Assay: cell-based or functional assay
# htt-N63-148Q (63 amino acid N-terminal huntingtin fragment containing 148 polyglutamine repeats), sequence (P42858 other isoform, or with tags, fused parts or gaps limits assumed): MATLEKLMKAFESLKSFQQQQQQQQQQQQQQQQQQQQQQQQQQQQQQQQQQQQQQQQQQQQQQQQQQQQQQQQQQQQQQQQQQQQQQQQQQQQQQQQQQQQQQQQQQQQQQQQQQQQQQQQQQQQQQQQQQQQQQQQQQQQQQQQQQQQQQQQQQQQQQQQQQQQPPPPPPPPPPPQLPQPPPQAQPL
Substance,"TG-catalyzed modifications of huntingtin (second experiment, HEK-293T cells) (fold decrease)","TG-modified huntingtin (81D4 immunoprecipitation, immunoblot, HEK-293T cells) (fold decrease)","cytotoxicity (LDH assay, HEK-293T cells)","cytotoxicity (LDH assay, second experiment, HEK-293T cells)","carbachol-stimulated intracellular Ca2+ release (Fura-2, HEK-293T cells)"
"CaM-C-term (C-terminal CaM construct, last 72 amino acids of calmodulin) (from UniProt P0DP23 78-149)",2,2,40 % decrease,40 % decrease,–
"CaM-center (center region CaM construct, 77 amino acids in the center of calmodulin) (from UniProt P0DP23 37-113)",2,2,40 % decrease,50 % decrease,10 % decrease
